From US10618965 (dated 2020)

T1: human FcgRIIb (human)
T1 chain: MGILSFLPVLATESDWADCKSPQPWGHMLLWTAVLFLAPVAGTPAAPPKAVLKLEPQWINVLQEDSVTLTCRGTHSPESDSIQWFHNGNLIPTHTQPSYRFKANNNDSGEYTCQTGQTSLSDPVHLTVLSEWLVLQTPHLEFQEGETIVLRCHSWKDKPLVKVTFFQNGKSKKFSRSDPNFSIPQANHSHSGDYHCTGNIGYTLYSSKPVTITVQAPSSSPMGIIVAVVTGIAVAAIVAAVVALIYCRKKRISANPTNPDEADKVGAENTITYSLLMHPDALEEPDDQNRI

T2: human FcgRIIa(R) (human)
T2 chain: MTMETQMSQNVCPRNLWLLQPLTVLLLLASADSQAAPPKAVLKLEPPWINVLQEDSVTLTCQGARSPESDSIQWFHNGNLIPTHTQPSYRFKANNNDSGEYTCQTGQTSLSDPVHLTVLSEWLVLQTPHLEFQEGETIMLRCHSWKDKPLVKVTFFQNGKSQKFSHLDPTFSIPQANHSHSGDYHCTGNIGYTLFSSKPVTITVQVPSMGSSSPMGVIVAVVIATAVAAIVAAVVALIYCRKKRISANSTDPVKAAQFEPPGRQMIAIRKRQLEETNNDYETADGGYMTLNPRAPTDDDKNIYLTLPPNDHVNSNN


How the values were obtained:
Test in all cases: SPR
[1] = target: human FcgRIIIa(V) (human)
Chain of human FcgRIIIa(V) (human) (chain, as listed by the source): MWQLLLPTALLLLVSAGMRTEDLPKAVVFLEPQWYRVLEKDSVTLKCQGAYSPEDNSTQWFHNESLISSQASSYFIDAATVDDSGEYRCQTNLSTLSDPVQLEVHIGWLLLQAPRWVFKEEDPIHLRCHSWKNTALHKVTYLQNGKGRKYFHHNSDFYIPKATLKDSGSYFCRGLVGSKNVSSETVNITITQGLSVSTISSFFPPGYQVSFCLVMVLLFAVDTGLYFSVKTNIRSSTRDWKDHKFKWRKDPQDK

[2] = target: T1, human FcgRIIb
[3] = target: T2, human FcgRIIa(R)
[4] = target: human FcgRIa (human)
Chain of human FcgRIa (human) (chain, as listed by the source): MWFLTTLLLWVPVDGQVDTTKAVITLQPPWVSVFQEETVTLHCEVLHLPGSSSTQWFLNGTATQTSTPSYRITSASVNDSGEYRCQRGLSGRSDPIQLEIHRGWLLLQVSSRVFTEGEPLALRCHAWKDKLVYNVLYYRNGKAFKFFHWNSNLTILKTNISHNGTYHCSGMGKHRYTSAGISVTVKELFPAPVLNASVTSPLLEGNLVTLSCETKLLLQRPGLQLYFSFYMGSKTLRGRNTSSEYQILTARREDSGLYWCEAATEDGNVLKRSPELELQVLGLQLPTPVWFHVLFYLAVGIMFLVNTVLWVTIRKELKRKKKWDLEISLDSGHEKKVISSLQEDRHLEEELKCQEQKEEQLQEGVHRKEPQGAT

Binder	Kd [1]	Kd [2]	Kd [3]	Kd [4]
IL6R-PD082 (antibody) chain 1: QVQLQESGPGLVKPSETLSLTCAVSGHSISHDHAWSWVRQPPGEGLEWIGFISYSGITNYNPSLQGRVTISRDNSKNTLYLQMNSLRAEDTAVYYCARSLARTTAMDYWGEGTLVTVSSASTKGPSVFPLAPSSKSTSGGTAALGCLVKDYFPEPVTVSWNSGALTSGVHTFPAVLQSSGLYSLSSVVTVPSSSLGTQTYICNVNHKPSNTKVDKKVEPKSCDKTHTCPPCPAPELLGFDSVFLFPPKPKDTLYISRTPEVTCVVVDVSHEDPEVKFNWYVDGVEVHNAKTKPREEQYNSTYRVVSVLTVLHQDWLNGKEYKCKVSNKALPAPIEKTISKAKGQPREPQVYTLPPSRDELTKNQVSLTCLVKGFYPSDIAVEWESNGQPENNYKTTPPVLDSDGSFFLYSKLTVDKSRWQQGNVFSCSVMHEALHYHYTQKSLSLSP chain 2: DIQMTQSPSSLSASVGDRVTITCRASQDISSYLNWYQQKPGKAPKLLIYYTSRLHSGVPSRFSGSGSGTDFTFTISSLQPEDIATYYCQQGNTLPYTFGQGTKVEIK	43000 nM	3400 nM	14000 nM	52 nM
IL6R-PD042 (antibody) chain 1: QVQLQESGPGLVKPSETLSLTCAVSGHSISHDHAWSWVRQPPGEGLEWIGFISYSGITNYNPSLQGRVTISRDNSKNTLYLQMNSLRAEDTAVYYCARSLARTTAMDYWGEGTLVTVSSASTKGPSVFPLAPSSKSTSGGTAALGCLVKDYFPEPVTVSWNSGALTSGVHTFPAVLQSSGLYSLSSVVTVPSSSLGTQTYICNVNHKPSNTKVDKKVEPKSCDKTHTCPPCPAPEWLGGDSVFLFPPKPKDTLYISRTPEVTCVVVDVSHEDPEVKFNWYVDGVEVHNAKTKPREEQYNSTYRVVSVLTVLHQDWLNGKEYKCKVSNKALPAPIEKTISKAKGQPREPQVYTLPPSRDELTKNQVSLTCLVKGFYPSDIAVEWESNGQPENNYKTTPPVLDSDGSFFLYSKLTVDKSRWQQGNVFSCSVMHEALHYHYTQKSLSLSP chain 2: DIQMTQSPSSLSASVGDRVTITCRASQDISSYLNWYQQKPGKAPKLLIYYTSRLHSGVPSRFSGSGSGTDFTFTISSLQPEDIATYYCQQGNTLPYTFGQGTKVEIK		2000 nM	16000 nM	63 nM
IL6R-PD079 (antibody) chain 1: QVQLQESGPGLVKPSETLSLTCAVSGHSISHDHAWSWVRQPPGEGLEWIGFISYSGITNYNPSLQGRVTISRDNSKNTLYLQMNSLRAEDTAVYYCARSLARTTAMDYWGEGTLVTVSSASTKGPSVFPLAPSSKSTSGGTAALGCLVKDYFPEPVTVSWNSGALTSGVHTFPAVLQSSGLYSLSSVVTVPSSSLGTQTYICNVNHKPSNTKVDKKVEPKSCDKTHTCPPCPAPELLGADSVFLFPPKPKDTLYISRTPEVTCVVVDVSHEDPEVKFNWYVDGVEVHNAKTKPREEQYNSTYRVVSVLTVLHQDWLNGKEYKCKVSNKALPAPIEKTISKAKGQPREPQVYTLPPSRDELTKNQVSLTCLVKGFYPSDIAVEWESNGQPENNYKTTPPVLDSDGSFFLYSKLTVDKSRWQQGNVFSCSVMHEALHYHYTQKSLSLSP chain 2: DIQMTQSPSSLSASVGDRVTITCRASQDISSYLNWYQQKPGKAPKLLIYYTSRLHSGVPSRFSGSGSGTDFTFTISSLQPEDIATYYCQQGNTLPYTFGQGTKVEIK	37000 nM	3000 nM	32000 nM	140 nM
IL6R-PD080 (antibody) chain 1: QVQLQESGPGLVKPSETLSLTCAVSGHSISHDHAWSWVRQPPGEGLEWIGFISYSGITNYNPSLQGRVTISRDNSKNTLYLQMNSLRAEDTAVYYCARSLARTTAMDYWGEGTLVTVSSASTKGPSVFPLAPSSKSTSGGTAALGCLVKDYFPEPVTVSWNSGALTSGVHTFPAVLQSSGLYSLSSVVTVPSSSLGTQTYICNVNHKPSNTKVDKKVEPKSCDKTHTCPPCPAPELLGADSVFLFPPKPKDTLYISRTPEVTCVVVDVSHEDPEVKFNWYVDGVEVHNAKTKPREEQYNSTYRVVSVLTVLHQDWLNGKEYKCKVSNKALPAPIEKTISKAKGQPREPQVYTLPPSRDELTKNQVSLTCLVKGFYPSDIAVEWESNGQPENNYKTTPPVLDSDGSFFLYSKLTVDKSRWQQGNVFSCSVMHEALHYHYTQKSLSLSP chain 2: DIQMTQSPSSLSASVGDRVTITCRASQDISSYLNWYQQKPGKAPKLLIYYTSRLHSGVPSRFSGSGSGTDFTFTISSLQPEDIATYYCQQGNTLPYTFGQGTKVEIK		2000 nM	21000 nM	140 nM

Other lines, results leading:

Kd [1]	Kd [2]	Kd [3]	Kd [4]	Binder
	2300 nM	7900 nM	93 nM	IL6R-PD095 (antibody) chain 1: QVQLQESGPGLVKPSETLSLTCAVSGHSISHDHAWSWVRQPPGEGLEWIGFISYSGITNYNPSLQGRVTISRDNSKNTLYLQMNSLRAEDTAVYYCARSLARTTAMDYWGEGTLVTVSSASTKGPSVFPLAPSSKSTSGGTAALGCLVKDYFPEPVTVSWNSGALTSGVHTFPAVLQSSGLYSLSSVVTVPSSSLGTQTYICNVNHKPSNTKVDKKVEPKSCDKTHTCPPCPAPELLGYDSVFLFPPKPKDTLYISRTPEVTCVVVDVSHEDPEVKFNWYVDGVEVHNAKTKPREEQYNSTYRVVSVLTVLHQDWLNGKEYKCKVSNKALPAPIEKTISKAKGQPREPQVYTLPPSRDELTKNQVSLTCLVKGFYPSDIAVEWESNGQPENNYKTTPPVLDSDGSFFLYSKLTVDKSRWQQGNVFSCSVMHEALHYHYTQKSLSLSP chain 2: DIQMTQSPSSLSASVGDRVTITCRASQDISSYLNWYQQKPGKAPKLLIYYTSRLHSGVPSRFSGSGSGTDFTFTISSLQPEDIATYYCQQGNTLPYTFGQGTKVEIK
	1400 nM	3500 nM	4.9 nM	IL6R-PD097 (antibody) chain 1: QVQLQESGPGLVKPSETLSLTCAVSGHSISHDHAWSWVRQPPGEGLEWIGFISYSGITNYNPSLQGRVTISRDNSKNTLYLQMNSLRAEDTAVYYCARSLARTTAMDYWGEGTLVTVSSASTKGPSVFPLAPSSKSTSGGTAALGCLVKDYFPEPVTVSWNSGALTSGVHTFPAVLQSSGLYSLSSVVTVPSSSLGTQTYICNVNHKPSNTKVDKKVEPKSCDKTHTCPPCPAPELLGGDDVFLFPPKPKDTLYISRTPEVTCVVVDVSHEDPEVKFNWYVDGVEVHNAKTKPREEQYNSTYRVVSVLTVLHQDWLNGKEYKCKVSNKALPAPIEKTISKAKGQPREPQVYTLPPSRDELTKNQVSLTCLVKGFYPSDIAVEWESNGQPENNYKTTPPVLDSDGSFFLYSKLTVDKSRWQQGNVFSCSVMHEALHYHYTQKSLSLSP chain 2: DIQMTQSPSSLSASVGDRVTITCRASQDISSYLNWYQQKPGKAPKLLIYYTSRLHSGVPSRFSGSGSGTDFTFTISSLQPEDIATYYCQQGNTLPYTFGQGTKVEIK
37000 nM	2900 nM	22000 nM	52 nM	IL6R-PD087 (antibody) chain 1: QVQLQESGPGLVKPSETLSLTCAVSGHSISHDHAWSWVRQPPGEGLEWIGFISYSGITNYNPSLQGRVTISRDNSKNTLYLQMNSLRAEDTAVYYCARSLARTTAMDYWGEGTLVTVSSASTKGPSVFPLAPSSKSTSGGTAALGCLVKDYFPEPVTVSWNSGALTSGVHTFPAVLQSSGLYSLSSVVTVPSSSLGTQTYICNVNHKPSNTKVDKKVEPKSCDKTHTCPPCPAPELLGMDSVFLFPPKPKDTLYISRTPEVTCVVVDVSHEDPEVKFNWYVDGVEVHNAKTKPREEQYNSTYRVVSVLTVLHQDWLNGKEYKCKVSNKALPAPIEKTISKAKGQPREPQVYTLPPSRDELTKNQVSLTCLVKGFYPSDIAVEWESNGQPENNYKTTPPVLDSDGSFFLYSKLTVDKSRWQQGNVFSCSVMHEALHYHYTQKSLSLSP chain 2: DIQMTQSPSSLSASVGDRVTITCRASQDISSYLNWYQQKPGKAPKLLIYYTSRLHSGVPSRFSGSGSGTDFTFTISSLQPEDIATYYCQQGNTLPYTFGQGTKVEIK
	2300 nM	7200 nM	36 nM	IL6R-PD094 (antibody) chain 1: QVQLQESGPGLVKPSETLSLTCAVSGHSISHDHAWSWVRQPPGEGLEWIGFISYSGITNYNPSLQGRVTISRDNSKNTLYLQMNSLRAEDTAVYYCARSLARTTAMDYWGEGTLVTVSSASTKGPSVFPLAPSSKSTSGGTAALGCLVKDYFPEPVTVSWNSGALTSGVHTFPAVLQSSGLYSLSSVVTVPSSSLGTQTYICNVNHKPSNTKVDKKVEPKSCDKTHTCPPCPAPELLGWDSVFLFPPKPKDTLYISRTPEVTCVVVDVSHEDPEVKFNWYVDGVEVHNAKTKPREEQYNSTYRVVSVLTVLHQDWLNGKEYKCKVSNKALPAPIEKTISKAKGQPREPQVYTLPPSRDELTKNQVSLTCLVKGFYPSDIAVEWESNGQPENNYKTTPPVLDSDGSFFLYSKLTVDKSRWQQGNVFSCSVMHEALHYHYTQKSLSLSP chain 2: DIQMTQSPSSLSASVGDRVTITCRASQDISSYLNWYQQKPGKAPKLLIYYTSRLHSGVPSRFSGSGSGTDFTFTISSLQPEDIATYYCQQGNTLPYTFGQGTKVEIK
41000 nM	2600 nM	18000 nM	120 nM	IL6R-PD086 (antibody) chain 1: QVQLQESGPGLVKPSETLSLTCAVSGHSISHDHAWSWVRQPPGEGLEWIGFISYSGITNYNPSLQGRVTISRDNSKNTLYLQMNSLRAEDTAVYYCARSLARTTAMDYWGEGTLVTVSSASTKGPSVFPLAPSSKSTSGGTAALGCLVKDYFPEPVTVSWNSGALTSGVHTFPAVLQSSGLYSLSSVVTVPSSSLGTQTYICNVNHKPSNTKVDKKVEPKSCDKTHTCPPCPAPELLGLDSVFLFPPKPKDTLYISRTPEVTCVVVDVSHEDPEVKFNWYVDGVEVHNAKTKPREEQYNSTYRVVSVLTVLHQDWLNGKEYKCKVSNKALPAPIEKTISKAKGQPREPQVYTLPPSRDELTKNQVSLTCLVKGFYPSDIAVEWESNGQPENNYKTTPPVLDSDGSFFLYSKLTVDKSRWQQGNVFSCSVMHEALHYHYTQKSLSLSP chain 2: DIQMTQSPSSLSASVGDRVTITCRASQDISSYLNWYQQKPGKAPKLLIYYTSRLHSGVPSRFSGSGSGTDFTFTISSLQPEDIATYYCQQGNTLPYTFGQGTKVEIK
